In US20220211018A1:

Legend:
[1] = biological target: human thrombomodulin (hTBM) expressed from the B200 vector on porcine aortic endothelial cells (UniProt P07204)
collagen agonist = test: cell-based or functional assay; settings: scale: % more aggregation than the monoallelic vWF edit blood

Chain of UniProt P07204 (P07204 whole entry, looked up): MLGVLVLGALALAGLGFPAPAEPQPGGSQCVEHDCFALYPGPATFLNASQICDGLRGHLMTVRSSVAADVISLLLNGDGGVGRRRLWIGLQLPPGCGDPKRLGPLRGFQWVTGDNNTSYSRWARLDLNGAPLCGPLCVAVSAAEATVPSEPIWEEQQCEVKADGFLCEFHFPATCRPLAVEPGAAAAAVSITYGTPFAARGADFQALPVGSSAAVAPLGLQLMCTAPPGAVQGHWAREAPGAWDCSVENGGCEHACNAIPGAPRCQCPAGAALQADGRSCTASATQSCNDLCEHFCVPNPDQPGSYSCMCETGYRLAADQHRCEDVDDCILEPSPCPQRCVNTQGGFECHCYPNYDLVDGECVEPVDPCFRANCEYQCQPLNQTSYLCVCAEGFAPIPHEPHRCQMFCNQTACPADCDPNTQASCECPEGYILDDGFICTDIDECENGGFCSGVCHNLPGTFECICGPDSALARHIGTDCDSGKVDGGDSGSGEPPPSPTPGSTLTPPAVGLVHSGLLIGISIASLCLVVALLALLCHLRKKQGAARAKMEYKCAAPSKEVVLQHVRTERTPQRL

Substance	activated protein C (APC) assay on pAEC: human thrombin and human Protein C added, Chromogenix S-2366 substrate, absorbance at 405 nm, nM APC/mg protein [1]	whole blood platelet aggregation (Chrono-log Whole Blood Aggregometer) after collagen agonist (2 ug/mL) (collagen agonist)
human thrombin	pAEC from a transgenic pig expressing hTBM and hEPCR from the B200 vector showed a significantly elevated APC levels when compared to GTKO transgenic pig control	
porcine von Willebrand factor (unmodified) (from UniProt Q28833 438-2482)		50
